Data set [1] can be described thus: Shaking test of peptide hormone solutions at 37° C., Example 5. To be noted: for appearance after a few days of shaking: 0.1% solution in 0.05M Tris/HCl buffer pH 7.5, shaken at 37° C., without stabilizer; for appearance of stabilized samples: 0.1% solution in 0.05M Tris/HCl pH 7.5, shaken at 37° C., with 10 ppm block polymer (PPG MW 2,000, 5% PEG each side).
The nature of data set [2]: Adsorption of proteins on polystyrene beads at 5° C., protein concentration in filtrate, Example 3. Type of data set: physicochemical. To be noted: for protein concentration in solution, A: A = 3 ml of protein solution + 450 μl of buffer (no polystyrene), phosphate buffer pH 7; for protein concentration in solution (filtrate), B: B = after contact with treated polystyrene surfaces (block polymer PPG MW 2,250, 5% PEG each side; 20 ppm present); for protein concentration in solution (filtrate), B / protein concentration in solution (filtrate), C: shaken at 5° C., 0.2 μm filtered; for protein concentration in solution (filtrate), C: C = after contact with untreated polystyrene surfaces.
Experimental: 10 ml of an aqueous suspension of polystyrene beads (Dow-Latex®) having an average diameter of 0.481 μm were divided in two aliquots, one of which remained untreated while the other was shaken for 2 days at room temperature with 50 mg of a block polymer consisting of a linear polypropylene glycol chain with an average molecular weight of 2,250 (Dalton) on each side of which 5% of polyethylene glycol had been added by polymerization. The excess block polymer was then removed by dialysis against an aqueous solution containing 20 ppm of the same polymeric, surface-active substance.
Two times 3 ml portions of a solution of the proteins indicated in the following table in the given concentrations in phosphate buffer, pH 7, were prepared and each solution was shaken at 5° C. with 500 μl each of the untreated polystyrene suspension or the polystyrene suspension treated as described above, the latter still containing 20 ppm of the block polymer. Each sample was then filtered to clarity through a 0.2 μm filter.
A=3 ml of the respective protein solution+450 μl of buffer
B=after contact with treated polystyrene surfaces
C=after contact with untreated polystyrene surfaces.

A short description of data set [3]: Shaking test of albumin solutions at 37° C. (turbidity from denatured protein), Example 1b. Type of data set: physicochemical. The conditions noted are these: 0.1% solution in 0.01M phosphate buffer pH 7, shaken at 37° C.
A short description of data set [4]: Adsorption of β-galactosidase on silicone oil emulsion, enzyme activity in aqueous phase, Example 2. The data set is classed as physicochemical. Here is the method:
Ten samples of 10 ml each of a 0.01% solution of the enzyme β-galactosidase from E. coli in 0.01M phosphate buffer, pH 7, with 3×10^6 μU/ml were admixed stepwise with 10 to 100 mg of silicone oil AK 350 and the suspensions were shaken for 48 hours at 5° C. Emulsions were formed which could be separated into two phases by ultracentrifugation (40,000 g, 30 minutes, 4° C.). The enzyme activity in the aqueous phase was determined.

Data set [5] is described as follows: Shaking test of protein solutions at 37° C. with analytical ultracentrifuge check, Example 6. The data set is classed as physicochemical. The protocol: 0.1% solutions of egg albumin, human immunoglobulin-G and myoglobin of the whale, respectively, in 0.01M phosphate buffer, pH 7, and analogous solutions containing 0.1%, calculated on the weight of the solution, of the following compound [drawing 4] in which n and m are chosen to obtain a compound having an average total molecular weight of 12,500 Daltons with an ethylene oxide proportion of 40%, were freed from aggregates by ultracentifugation (for example 100,000 g/90 minutes). Ampules containing 10 ml each of the solutions were shaken at 37° C.

For “gastrin inhibiting polypeptide: peptide hormone”, the “appearance after a few days of shaking” value in data set [1] was “had become turbid”.
Still for that read-out and setting: in the case of gastrin it was “had become turbid”.
For the molecule Insulin, in data set [2], the “protein concentration in solution, A” value amounted to 1.0 mg/mL; the “protein concentration in solution (filtrate), B” value (from here on “protein concentration … B”) came out at 1.0 mg/mL; the “protein concentration in solution (filtrate), C” value worked out at 0.2 mg/mL.
As to “bovine serum albumin: bovine serum albumin, 0.1% solution”, the “appearance of sample containing stabilizer” value in data set [3] (with 10 ppm block polymer (polypropylene glycol MW 1,750, 5% polyethylene glycol on each side)) is on record as “still limpid after several month”. For the same molecule, the “time after which sample became strongly turbid (denatured protein)” value in data set [3] (without stabilizer) amounted to 7 days.
Regarding calcitonin, in data set [1], the “appearance after a few days of shaking” value is recorded as “had become turbid” and the “appearance of stabilized samples” value is recorded as “remained clear even after several months”.
Consider cholecystokinin, for which, in data set [1], the “appearance after a few days of shaking” value is reported as “had become turbid” and the “appearance of stabilized samples” value is given as “remained clear even after several months”.
Consider secretin: peptide hormone, for which, in data set [2], the “protein concentration in solution, A” value stood at 1.0 mg/mL; the “protein concentration … B” value was determined as 1.0 mg/mL; the “protein concentration in solution (filtrate), C” value was 0.3 mg/mL. The “appearance after a few days of shaking” value in data set [1] is “had become turbid”.
Consider “adrenocorticotropic hormone: peptide hormone (SYSMEHFRWGKPVGKKRRPVKVYPNGAEDESAEAFPLEF; Corticotropin; UniProt P01189 138-176, looked up)”, for which, in data set [1], the “appearance after a few days of shaking” value was “had become turbid” and the “appearance of stabilized samples” value is reported as “remained clear even after several months”.
Take Lysozyme: in data set [2], the “protein concentration in solution, A” value turned out to be 1.0 mg/mL; the “protein concentration … B” value turned out to be 0.95 mg/mL; the “protein concentration in solution (filtrate), C” value came out at 0.25 mg/mL.
“β-galactosidase: enzyme β-galactosidase from E. coli”: the “enzyme adsorbed by silicone oil emulsion” value in data set [4] (0.01% solution, 0.01M phosphate buffer pH 7, 10 to 100 mg silicone oil AK 350, shaken 48 hours at 5° C., without stabilizer) is “up to 70%”. Further, the “enzyme activity adsorbed on silicone oil” value in data set [4] (same test in the presence of 100 ppm of compound drawing 2) is reported as “no enzyme activity had been adsorbed”.

B1: Egg-albumin: egg albumin (protein, UniProt P01012 2-386, looked up)
Ovalbumin: GSIGAASMEFCFDVFKELKVHHANENIFYCPIAIMSALAMVYLGAKDSTRTQINKVVRFDKLPGFGDSIEAQCGTSVNVHSSLRDILNQITKPNDVYSFSLASRLYAEERYPILPEYLQCVKELYRGGLEPINFQTAADQARELINSWVESQTNGIIRNVLQPSSVDSQTAMVLVNAIVFKGLWEKAFKDEDTQAMPFRVTEQESKPVQMMYQIGLFRVASMASEKMKILELPFASGTMSMLVLLPDEVSGLEQLESIINFEKLTEWTSSNVMEERKIKVYLPRMKMEEKYNLTSVLMAMGITDVFSSSANLSGISSAESLKISQAVHAAHAEINEAGREVVGSAEAGVDAASVSEEFRADHPFLFCIKHIATNAVLFFGRCVSP
Turning to B1, in data set [2], the “protein concentration in solution, A” value worked out at 0.5 mg/mL; the “protein concentration … B” value is 0.50 mg/mL; the “protein concentration in solution (filtrate), C” value stood at 0.22 mg/mL. Also, the “appearance of samples without stabilizer” value in data set [5] (0.1% solution in 0.01M phosphate buffer pH 7, freed from aggregates, shaken at 37° C., without stabilizer) is listed as “became strongly turbid after a few hours”. The “appearance of samples containing surface-active substance” value in data set [5] (0.1% solution in 0.01M phosphate buffer pH 7, shaken at 37° C., with 0.1% of compound drawing 4 (MW 12,500, 40% ethylene oxide)) is reported as “remained limpid for several months”. The “new aggregates in analytical ultracentrifuge” value in data set [5] (samples with 0.1% of compound drawing 4 after shaking at 37° C.) is “no new aggregate could be found”.

The record behind these values is US4783441A, “Aqueous protein solutions stable to denaturation” (Hoechst Aktiengesellschaft, priority 1979, dated 1988).
